± gives the uncertainty stated by the source.
Test: self-splicing fitness, log relative to wild type (ln ratio); higher = more splicing; Tetrahymena group I intron in knt gene, E. coli kanamycin selection, DiMSum; sequences stand for … in CUCUCU…GGAGGGAAAAGUUAUCAGGCAUGCACCUGGUAGCUAGUCUUUAAACCAAUAGAUUGCAUCGGUUUAAAAGGCAAGACCGUCAAAUUGCGGGAAAGGGGUCAACAGCCGUUCAGUACCAAGUCUCAGGGGAAACUUUGAGAUGGCCUUGCAAAGGGUAUGGUAAUAAGCUGACGGACAUGGUCCUAACCACGCAGCCAAGUCCUAAGUCAACAGAUCUUCUGUUGAUAUGGAUGCAGUUCACAGACUAAAUGUCGGUCGGGGAAGAUGUAUUCUUCUCAUAAGAUAUAGUCGGACCUCUCCUUAAUGGGAGCUAGCGGAUGAAGUGAUGCAACACUGGAGCCGCUGGGAACUAAUUUGUAUGCGAAAGUAUAUUGAUUAGUUUUGGAGUACUCGUGGUCG
Procedure, shortened: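 The eight P1ex-region nucleotides of an intron in the knt kanamycin-resistance gene on pET-22b(+) were all randomised and the library put into E. coli BL21(DE3). Six replicate transformations were grown overnight at 37°C or 30°C on LB agar with or without 25 μg/mL kanamycin, together with 100 μg/mL carbenicillin, 50 μM IPTG and 0.2% rhamnose. Colonies were pooled and amplicon-sequenced on an Illumina HiSeq 2500. Fitness from DiMSum is the error-weighted combination of wild-type-normalised replicate fold changes, kanamycin over none.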

Sequence | self-splicing fitness (ln) (30 °C) | self-splicing fitness (ln) (37 °C)
AAUUAGCAAUAUUACGCCCC | -0.573 ± 0.33 | -0.798 ± 0.49
AAUUAGCAAUAUUACGCGCU | -0.647 ± 0.13 | -0.214 ± 0.2
AAUUAGCAAUAUUACGCUCU | -0.501 ± 0.11 | 0.54 ± 0.15
AAUUAGCAAUAUUACGCUGC |  | -2.79 ± 0.4
AAUUAGCAAUAUUACGGAAA | -1.83 ± 0.29 | -1.72 ± 0.49
AAUUAGCAAUAUUACGGACU | -0.43 ± 0.087 | 0.51 ± 0.14
AAUUAGCAAUAUUACGGAGG | -3.68 ± 0.39 | -1.87 ± 0.25
AAUUAGCAAUAUUACGGCGC | -0.632 ± 0.13 | -0.211 ± 0.13
AAUUAGCAAUAUUACGGGGC | -2.38 ± 0.21 | 
AAUUAGCAAUAUUACGUCAG | -1.16 ± 0.14 | -1.47 ± 0.24
AAUUAGCAAUAUUACGUGGU | -4.47 ± 0.26 | -2.18 ± 0.14
AAUUAGCAAUAUUACGUGUC | -3.59 ± 0.29 | -1.79 ± 0.2
AAUUAGCAAUAUUACGUUGA | -2.74 ± 0.15 | -1.55 ± 0.11
ACAAAGCAAUAUUACGAAAC |  | -0.88 ± 0.2
ACAAAGCAAUAUUACGACUC | -0.72 ± 0.11 | -0.304 ± 0.12
ACAAAGCAAUAUUACGAUAG | -3.47 ± 0.17 | -2.21 ± 0.19
ACAAAGCAAUAUUACGAUGU | -3.56 ± 0.11 | -2.43 ± 0.12
ACAAAGCAAUAUUACGCAAC | -2.37 ± 0.17 | -0.412 ± 0.17
ACAAAGCAAUAUUACGCAGA | -2.12 ± 0.14 | -1.06 ± 0.093
ACAAAGCAAUAUUACGCGGC | -2.91 ± 0.13 | -3.04 ± 0.21
ACAAAGCAAUAUUACGCUAG | -1.53 ± 0.072 | -1.72 ± 0.086
ACAAAGCAAUAUUACGGCCA | -1.13 ± 0.14 | -0.00489 ± 0.11
ACAAAGCAAUAUUACGGCGU | -1.78 ± 0.075 | -1.17 ± 0.093
ACAAAGCAAUAUUACGGGAC | -3.25 ± 0.17 | -1.96 ± 0.14

Sequence | self-splicing fitness (ln) (30 °C) | self-splicing fitness (ln) (37 °C)
ACAAAGCAAUAUUACGGGCU | -1.07 ± 0.055 | -0.972 ± 0.088
ACAAAGCAAUAUUACGUAAU | -2.62 ± 0.061 | -1.14 ± 0.074
ACAAAGCAAUAUUACGUAGG | -2.88 ± 0.1 | -1.55 ± 0.12
ACAAAGCAAUAUUACGUGGG | -3.35 ± 0.13 | -2.47 ± 0.14
ACAAAGCAAUAUUACGUGUC | -3.69 ± 0.14 | -3 ± 0.16
ACAAAGCAAUAUUACGUGUG | -1.91 ± 0.052 | -0.905 ± 0.057
ACAAAGCAAUAUUACGUUCA | -1.2 ± 0.068 | -0.708 ± 0.076
ACACAGCAAUAUUACGAACU | -0.798 ± 0.05 | -0.493 ± 0.068
ACACAGCAAUAUUACGAAGC | -4.18 ± 0.22 | -2.8 ± 0.21
ACACAGCAAUAUUACGAAUA | -2.21 ± 0.13 | -1.6 ± 0.11
ACACAGCAAUAUUACGACUG | -0.972 ± 0.047 | -0.67 ± 0.06
ACACAGCAAUAUUACGAGCA | -1.44 ± 0.12 | -1.45 ± 0.13
ACACAGCAAUAUUACGAUAC | -2.58 ± 0.26 | -2.69 ± 0.25
ACACAGCAAUAUUACGCAGU | -3.84 ± 0.14 | -2.73 ± 0.12
ACACAGCAAUAUUACGCCUU | -1.62 ± 0.076 | -0.434 ± 0.091
ACACAGCAAUAUUACGCGCG | -0.558 ± 0.082 | 0.0666 ± 0.091
ACACAGCAAUAUUACGCGGG | -2.43 ± 0.075 | -1.69 ± 0.091
ACACAGCAAUAUUACGCGUG | -2.25 ± 0.074 | -1.68 ± 0.081
ACACAGCAAUAUUACGCUCA | -0.416 ± 0.087 | -0.203 ± 0.093
ACACAGCAAUAUUACGGACC | -1.99 ± 0.093 | -0.524 ± 0.11
ACACAGCAAUAUUACGGCCA | -1.18 ± 0.12 | -1.17 ± 0.11
ACACAGCAAUAUUACGGGUG | -1.31 ± 0.053 | -0.999 ± 0.065
ACACAGCAAUAUUACGGUGA | -1.31 ± 0.068 | 0.17 ± 0.077
ACACAGCAAUAUUACGUCCC | -1.16 ± 0.098 | -0.00572 ± 0.12

Sequence | self-splicing fitness (ln) (30 °C) | self-splicing fitness (ln) (37 °C)
ACACAGCAAUAUUACGUCGG | -1.65 ± 0.052 | -1.16 ± 0.071
ACACAGCAAUAUUACGUGAG | -1.02 ± 0.05 | 0.121 ± 0.074
ACACAGCAAUAUUACGUUCU | -0.986 ± 0.06 | -0.532 ± 0.068
ACAGAGCAAUAUUACGAGAG |  | -2.6 ± 0.28
ACAGAGCAAUAUUACGCAUA | -3.96 ± 0.31 | -1.8 ± 0.2
ACAGAGCAAUAUUACGCGAU | -3.54 ± 0.24 | -3.29 ± 0.3
ACAGAGCAAUAUUACGGAAU | -4.08 ± 0.29 | -1.86 ± 0.31
ACAGAGCAAUAUUACGGACU | -2.73 ± 0.18 | -1.07 ± 0.14
ACAGAGCAAUAUUACGGCUC | -3.09 ± 0.16 | -2.37 ± 0.22
ACAGAGCAAUAUUACGGGGA | -4.66 ± 0.34 | -3.55 ± 0.25
ACAGAGCAAUAUUACGGGUG | -2.96 ± 0.15 | -1.43 ± 0.12
ACAGAGCAAUAUUACGGUUU | -3.11 ± 0.2 | -1.81 ± 0.16
ACAGAGCAAUAUUACGUACG | -3.9 ± 0.23 | -2.3 ± 0.2
ACAGAGCAAUAUUACGUGAU | -2.97 ± 0.1 | -2.08 ± 0.15
ACAGAGCAAUAUUACGUUAU | -3.59 ± 0.19 | -3 ± 0.25
ACAUAGCAAUAUUACGACAA | -0.573 ± 0.12 | -0.73 ± 0.12
ACAUAGCAAUAUUACGAGCU | -1.32 ± 0.12 | -0.388 ± 0.13
ACAUAGCAAUAUUACGAUAC | -3.6 ± 0.23 | -2.2 ± 0.25
ACAUAGCAAUAUUACGAUCG | 0.0966 ± 0.084 | -0.312 ± 0.13
ACAUAGCAAUAUUACGAUUC | -2.52 ± 0.15 | -1.52 ± 0.12
ACAUAGCAAUAUUACGGAAC | -3.66 ± 0.24 | -2 ± 0.27
ACAUAGCAAUAUUACGGCCC | -1.29 ± 0.14 | -0.169 ± 0.23
ACAUAGCAAUAUUACGGCUC | -0.967 ± 0.092 | -0.28 ± 0.12
ACAUAGCAAUAUUACGGGCG | -1.28 ± 0.09 | -1 ± 0.096

Sequence | self-splicing fitness (ln) (30 °C) | self-splicing fitness (ln) (37 °C)
ACAUAGCAAUAUUACGUCCC | -1.71 ± 0.15 | -0.222 ± 0.23
ACAUAGCAAUAUUACGUCGC | -4.47 ± 0.38 | -1.69 ± 0.24
ACAUAGCAAUAUUACGUGCG | -1.05 ± 0.064 | -0.527 ± 0.081
ACAUAGCAAUAUUACGUGUG | -2.41 ± 0.065 | -1.58 ± 0.069
ACAUAGCAAUAUUACGUUAU | -4.28 ± 0.29 | -3.07 ± 0.2
ACAUAGCAAUAUUACGUUGA | -2.56 ± 0.17 | -1.66 ± 0.14
ACAUAGCAAUAUUACGUUUA | -2.82 ± 0.19 | -1.75 ± 0.14
ACCAAGCAAUAUUACGAAAG | -3.27 ± 0.18 | -1.78 ± 0.14
ACCAAGCAAUAUUACGAGAA | -2.87 ± 0.34 | -2.32 ± 0.3
ACCAAGCAAUAUUACGAGCA | -2.53 ± 0.12 | -0.958 ± 0.099
ACCAAGCAAUAUUACGAGUA | -2.81 ± 0.14 | -2.29 ± 0.13
ACCAAGCAAUAUUACGAGUU | -4.23 ± 0.23 | -1.99 ± 0.17
ACCAAGCAAUAUUACGAUAG | -4.36 ± 0.23 | -2.7 ± 0.21
ACCAAGCAAUAUUACGAUCC | -1.83 ± 0.093 | -0.778 ± 0.14
ACCAAGCAAUAUUACGCAGC | -1.83 ± 0.11 | -1.12 ± 0.13
ACCAAGCAAUAUUACGCCGA | -2.23 ± 0.15 | -1.81 ± 0.16
ACCAAGCAAUAUUACGCCGG | -2.33 ± 0.13 | -0.125 ± 0.13
ACCAAGCAAUAUUACGCCGU | -3.18 ± 0.17 | -1.66 ± 0.15
ACCAAGCAAUAUUACGCGAC | -3.19 ± 0.16 | -1.59 ± 0.16
ACCAAGCAAUAUUACGCGCA | -0.525 ± 0.054 | -0.106 ± 0.07
ACCAAGCAAUAUUACGCUGG | -2.75 ± 0.15 | -2.72 ± 0.21
ACCAAGCAAUAUUACGCUUG | -2.72 ± 0.21 | -3.79 ± 0.36
ACCAAGCAAUAUUACGGACA | -0.841 ± 0.068 | -0.38 ± 0.072
ACCAAGCAAUAUUACGGCUU | -3.85 ± 0.2 | -1.85 ± 0.16

Source: the supplement of paper PMC7877785
